The test system of data set [1] is corrosion tubercles on steel coupons. As to the kind of experiment: Dose-response of lactonase for inhibiting biocorrosion, 7 weeks. Here is the method: Five treatments with lactonase enzyme and two controls of the steel coupons were investigated for enzyme activity and corrosion rate. Each treatment or control contained three replicate steel coupons. They were exposed in lake water in lab microcosm for a period of 7 weeks. Lactonase enzyme silica gel coated testing coupon are prepared as described before, except the coupons were dipped and dried twice and covered with 2 layers of the same coating to ensure the intactness of the coating. The enzyme concentrations used in this experiment were 100, 200, 500, 1000 μg/ml. Also 100 μg/ml equivalent activity lactonase raw extract was tested to compare the effectiveness of raw enzyme extract to the purified lactonase enzyme.
After 7 weeks of exposure, coupons were retrieved and analyzed. The coupons in each treatment was photographed by the end of the experiment. Biocorrosion was evaluated by quantities and coverage of corrosion tubercle. Surface roughness measurement were also made with procedure described above.

The conditions of data set [2]: 25° C., purified protein sample; cited from earlier work.
Data set [3] relates to corrosion tubercles on steel coupons. As to the kind of experiment: Biocorrosion of coated steel coupons in Duluth-Superior Harbor water, 8 weeks. Also noted: concentration or dose not given beside the values. The conditions noted are these: silica gel coating, two months in DSH water. The protocol: The steel coupons were washed with soap water, lightly brushed for a few seconds with a test tube brush, and then rinsed with Milli-Q water to remove any loose material. Each coupon was designated with a unique number and weighed before being randomly assigned to a specific experimental treatment.
Each compound or enzyme was added to 5 ml of the silica gel matrix to develop different coating treatments. These coatings were applied by dipping coupons into the appropriate gel mixture for 1 minute, and then the coating on the coupon surface was air-dried at room temperature for 2 hours.
Six treatments and three controls were investigated for corrosion rate and changes in bacterial communities (Table 10). Each treatment or control contained three replicate steel coupons. After the triplicate steel coupons were coated with each biochemical, enzyme or bacterial treatment, they were incubated in experimental microcosms constructed from 10-gallon glass aquaria (Aqueon Glass, 50.8 cm×25.4 cm×30.5 cm) (FIG. 24). Each microcosm was equipped with an aquarium pump (Aquarium Systems Mini-Jet 404) to constantly circulate the water (˜2 L hr−1), and covered with a piece of acrylic with one corner cut out to allow gas exchange. The coupons were hold with plastic holders and immersed in water taken from the DSH for 8 weeks and then recovered for analyses.
The coupons in each treatment was photographed by the end of the experiment. Biocorrosion was evaluated by the number and coverage of corrosion tubercles, and also by imaging of coupon surfaces with an environmental scanning electron microscope (ESEM). The coupon images were captured with DSLR camera immediately after being removed from the harbor water, and then tubercle numbers and total area in digital images were measured using the analyze menu within ImageJ software (NIH, Bethesda, Md., USA). Surface roughness measurements were also made after the exposed coupons were cleaned with ASTM G1-90 iron and steel chemical cleaning procedure (2 min in 37% HCl, 50 g/L SnCl2). A Hitachi TM-3030 ESEM was used to view details of the cleaned coupon surface and the 3D-View software was used to generate surface roughness measurements (SRa). Statistics analysis (T-tests) of the tubercle numbers, coverage and surface roughness were performed using Microsoft Excel software.

The subject of data set [4] is complex soil microbial community. As to the kind of experiment: Biofilm quantification in flow-through recirculating bioreactor. It is filed as cell-based. Conditions: over 21 days. The protocol: After overnight induction (18° C., 0.2% L-Arabinose, 200 RPM shaking), cells overexpressing proteins were centrifuged (4,400×g, 20 min, 4° C.) and re-suspended in 100 mM potassium phosphate buffer, pH 7, at a concentration of 0.4 g/mL wet weight (0.2 g/mL for the 1× lactonase beads). Gel beads (1 mm diameter) containing the lactonase/control bacteria cultures were made using a dripping method while gelation occurred, using a method similar to a previously used protocol^41 400 mg PEG (average molecular weight, 10,000 Da) was mixed with 4 mL acetic acid (0.01M) until the PEG dissolved. […]
The flow-through system used in this study consisted of three 3-liter tanks set up in parallel. […] Each tank contained three liters of 15× diluted LB media in water and a pre-broken 96-stripwell plate was submerged to the bottom (so that individual wells could be harvested for either biofilm quantification or DNA extraction). […]
Inside each of the tanks sat two submerged 96-stripwell plates. […] Individual wells were extracted in triplicate for crystal violet biofilm quantification (OD550 nm) using a similar protocol as previously described^13. […] To quantify biofilm, the remaining crystal violet stained to the wells was solubilized with 125 μL of 30% acetic acid and this solution was read on a spectrophotometer at 550 nm. […]

[5] abbreviates: all concentrations 100-1000 μg/ml, 7 weeks, p<0.05.

B1: SsoPox W263I: improved variant of the hyperthermostable lactonase SsoPox from Sulfolobus solfataricus, exhibiting higher catalytic rates (protein, UniProt Q97VT7 1-314, looked up, variant W263I)
Aryldialkylphosphatase: MRIPLVGKDSIESKDIGFTLIHEHLRVFSEAVRQQWPHLYNEDEEFRNAVNEVKRAMQFGVKTIVDPTVMGLGRDIRFMEKVVKATGINLVAGTGIYIYIDLPFYFLNRSIDEIADLFIHDIKEGIQGTLNKAGFVKIAADEPGITKDVEKVIRAAAIANKETKVPIITHSNAHNNTGLEQQRILTEEGVDPGKILIGHLGDTDNIDYIKKIADKGSFIGLDRYGLDLFLPVDKRNETTLRLIKDGYSDKIMISHDYCCTIDIGTAKPEYKPKLAPRWSITLIFEDTIPFLKRNGVNEEVIATIFKENPKKFFS
Turning to B1, in data set [1] (setting [5]), the “reduction of number of corrosion tubercles” value is more than 38% and the “reduction of percent coverage of corrosion tubercles” value was more than 41%. Besides, the “reduction of surface roughness” value in data set [1] (all treatments) was “not statistically significant”. In addition, the “optimal concentration for coating application” value in data set [1] (highest reduction of corrosion tubercles) was 200 µg/mL. The time remaining stable in data set [2] is more than 300 days. Further, in data set [3], the “reduction of the coverage of corrosion tubercles” value is given as 50% and the “reduction of the number (formation) of corrosion tubercles” value worked out at 50%. Moreover, in data set [4], the “reduction of biofilm formation” value worked out at 2 fold.

(Values after US20220154156A1, “PROTEINS AND METHODS FOR DISRUPTING BACTERIAL COMMUNICATION” (REGENTS OF THE UNIVERSITY OF MINNESOTA, priority 2019, published 2022).)
